T1: human E-Cadherin (R&D systems, 8505-EC) (human, UniProt P12830 155-707)
T1 sequence (looked up): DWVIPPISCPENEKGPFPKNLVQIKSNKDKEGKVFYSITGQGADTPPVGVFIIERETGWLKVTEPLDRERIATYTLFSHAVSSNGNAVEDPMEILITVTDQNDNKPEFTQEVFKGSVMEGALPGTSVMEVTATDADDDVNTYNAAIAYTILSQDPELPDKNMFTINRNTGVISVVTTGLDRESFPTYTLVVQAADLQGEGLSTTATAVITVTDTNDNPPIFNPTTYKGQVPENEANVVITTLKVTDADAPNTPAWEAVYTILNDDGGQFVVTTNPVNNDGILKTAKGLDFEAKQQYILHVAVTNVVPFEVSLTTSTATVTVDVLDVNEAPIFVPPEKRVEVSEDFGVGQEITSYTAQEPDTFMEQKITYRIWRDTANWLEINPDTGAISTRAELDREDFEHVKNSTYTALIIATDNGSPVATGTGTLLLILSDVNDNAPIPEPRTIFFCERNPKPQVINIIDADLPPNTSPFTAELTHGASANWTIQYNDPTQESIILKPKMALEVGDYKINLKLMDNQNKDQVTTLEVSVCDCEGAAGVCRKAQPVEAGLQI

B1: G1-AA/FS28-026 (antibody, human IgG1, kappa, L234A L235A, V domains shown)
VH: EVQLLESGGGLVQPGGSLRLSCAASGFTFSNYAMTWVRQAPGKGLEWVSSITPYYSKTDYADSVKGRFTISRDNSKNTLYLQMNSLRAEDTAVYYCARNWYRFDYWGQGTLVTVSS
VL: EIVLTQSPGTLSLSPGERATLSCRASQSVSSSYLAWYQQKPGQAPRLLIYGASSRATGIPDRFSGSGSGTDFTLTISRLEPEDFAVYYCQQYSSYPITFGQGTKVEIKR
notes: IgG1 LALA; also called FS28-026 mAb (in G1-AA format)
B2: G1-AA/FS28-091 (antibody, human IgG1, kappa, L234A L235A, V domains shown)
VH: B1 VH with S30T, T35S, T52K, Y55D, S56G, K57N, D59Y, W100R, Y101W, R102V
VL: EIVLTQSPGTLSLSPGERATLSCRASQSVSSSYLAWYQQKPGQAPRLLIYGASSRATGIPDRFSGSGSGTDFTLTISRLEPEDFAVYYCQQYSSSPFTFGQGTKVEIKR
notes: IgG1 LALA; also called FS28-091 mAb (in G1-AA format)
B3: G1-AA/FS28-024 (antibody, human IgG1, kappa, L234A L235A, V domains shown)
VH: EVQLLESGGGLVQPGGSLRLSCAASGFTLSYSSMSWVRQAPGKGLEWVSFITPSTGYTHYADSVKGRFTISRDNSKNTLYLQMNSLRAEDTAVYYCARRALTFDYWGQGTLVTVSS
VL: EIVLTQSPGTLSLSPGERATLSCRASQSVSSSYLAWYQQKPGQAPRLLIYGASSRATGIPDRFSGSGSGTDFTLTISRLEPEDFAVYYCQQASSYPLTFGQGTKVEIKR
notes: Complete human IgG1 with LALA mutation; also called FS28-024 mAb (in G1-AA format)

Where a chain is given by its changes, count along the chain named.

The target of the first assay is T1, human E-Cadherin (R&D systems, 8505-EC). In words: ELISA, antigen coated at 1 ug/ml. As to the method: A similar protocol was used as described in section 1.2.1 in which maxisorp plates were coated with 1 μg/ml of recombinant human MSLN-His-Avi, human CEACAM-5-His-Fc (Sino Biological, 1077-H03H), human E-Cadherin (R&D systems, 8505-EC), human Thrombomodulin (Peprotech, 100-58) or human EpCAM-hFc (in-house production). Binding of the anti-MSLN mAbs, tested at a concentration range of 0.02 to 1000 nM (3-fold dilutions) was detected using anti-human Fab-HRP (Sigma, A0293). Positive controls for the respective molecules included human EpCAM antibody (clone 2G8 from patent no. U.S. Pat. No. 8,236,308 B2) CEACAM-5 antibody (clone hMN15 from patent no. U.S. Pat. No. 8,771,690 B2), human E-Cadherin antibody, mouse IgG2b clone 180215 (R&D systems, MAB1838), human Thrombomodulin antibody, mouse IgG1, clone 501733 (R&D systems, MAB3947). The latter two were detected using goat anti mouse Fc-HRP (Sigma, A9309) as secondary mAb.
With B1, the binding result is given as “no binding (tested: 1000 nM)”.
Same read-out and setting: under B2 stands “no binding (tested: 1000 nM)”.
B3: the binding result is “no binding (tested: 1000 nM)”.

In another assay the target is T2, cell surface human mesothelin (MSLN) (human, UniProt Q13421 296-598).
T2 construct: whole, on cells; also called cell surface MSLN
T2 sequence (Q13421 other isoform, or with tags, fused parts or gaps limits assumed): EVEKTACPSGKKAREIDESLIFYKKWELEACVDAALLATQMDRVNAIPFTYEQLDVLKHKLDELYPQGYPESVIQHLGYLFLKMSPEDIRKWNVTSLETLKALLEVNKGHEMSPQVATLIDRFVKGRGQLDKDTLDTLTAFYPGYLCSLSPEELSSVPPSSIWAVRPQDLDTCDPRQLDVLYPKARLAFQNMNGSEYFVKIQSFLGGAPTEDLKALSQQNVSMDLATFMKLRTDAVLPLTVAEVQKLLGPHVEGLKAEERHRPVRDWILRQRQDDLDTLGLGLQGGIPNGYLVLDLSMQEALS
In words: flow cytometry on NCI-H226 cells (endogenous cell surface MSLN), detection with anti-human IgG-PE, geometric mean MFI. As to the method:
(§1) Briefly, NCI-H226 cells (ATCC CRL-5826) were harvested from T175 cell culture flasks using StemPro Accutase (Gibco, A11105-01). Cells were centrifuged at 1200 rpm for 3 min and resuspended in ice cold FACS buffer made up of DPBS (Life Technologies, 14190169) and 1% BSA (Sigma-Aldrich, A7906) at 2×10⁶ cells/ml and 50 μl per well was seeded in a 96-well V-bottom plate (Costar, 3894). All mAbs tested were diluted in FACS buffer in 120 μl at a concentration range of 0.01-200 nM (4-fold dilutions). The NCI-H226 cells were then centrifuged, supernatant removed and cells resuspended in 100 μl of each mAb dilution and incubated at 4° C. for 45 min. Cells were washed twice by centrifugation with 150 μl FACS buffer, resuspended in 100 μl containing goat anti-human IgG (γ-chain specific) F(ab′)2 fragment-R-Phycoerythrin antibody (Sigma, P8047) diluted 1:1000 in FACS buffer and incubated at 4° C. for 45 min. The cells were washed once with 150 μl FACS buffer and then with 150 μl DPBS, resuspended in 150 μl DPBS containing DAPI (Biotium, 40043) at 1:10.000 and read on the BDCantoll or iQue (Intellicyt). Data was analysed using FlowJo v10 to determine the signal geometric mean for PE for live cells in each well.
Regarding B1, the “EC50 (read off the curve)” value was approximately 1 nM.
In the case of B2, the “EC50 (read off the curve)” value is approximately 1 nM.
As to B3, the “EC50 (read off the curve)” value is approximately 1 nM.

The target of the next assay is T2, cell surface human mesothelin (MSLN). The assay can be described thus: flow cytometry, NCI-H226 cells (n = 3). As to the method:
as §1
Turning to B1, a half-maximal effect (EC50) was put at 1.08 nM and the “Emax (MFI signal)” value was 13600 MFI.
As for B2, the EC50 came to 1.22 nM and the “Emax (MFI signal)” value was 11900 MFI.
As to B3, the EC50 was 0.62 nM and the “Emax (MFI signal)” value worked out at 14600 MFI.

A further assay deals with T3, human MSLN-His-Avi (human, UniProt Q13421 296-598, single biotin (BirA) in the biotinylated form).
T3 construct: Monomeric, made in HEK293-6E; Used both immobilised and in solution; also called hMSLN-His-Avi; biotinylated hMSLN-His-Avi
T3 sequence (Q13421 other isoform, or with tags, fused parts or gaps): as the sequence (Q13421 other isoform, or with tags, fused parts or gaps limits assumed) above
The assay can be described thus: SPR (Biacore), hMSLN-His-Avi immobilised at 100 RU, mAb injected. As to the method:
Human MSLN-His-Avi was immobilised on flow cell 2 on a CM5 Series S BIAcore sensor chip (GE Healthcare, BR100530) using an amine coupling kit (GE Healthcare, BR10050) to approximately 200 response units (RU). Flow cell 1 was left blank for subtraction. HEK293-6E supernatants or purified proteins were adjusted with HBS-EP+(GE Healthcare) to approximately 50 nM anti-MSLN mAb per sample. Samples were injected over flow cell 1 and 2 for 2.5 min at 30 μl/min and then allowed to dissociate in HBS-EP buffer for 2.5 min. Regeneration was achieved by injecting 10 mM glycine pH 1.5 (GE Healthcare, BR100354) for 30 seconds at a rate of 30 μl/min. Subtracted data (flow cell 2−flow cell 1) were analysed using BIAevaluation 3.2 Software (GE Healthcare).
For each bin described in 2.1.3, the binding kinetics were determined using the same method as described in section 2.1.2, except that human or cyno MSLN-His-Avi was immobilised at 50 or 100 RU. Clones were tested at a concentration range of 81 nM to 0.33 nM in 3-fold dilutions.
In turn, B1 showed a Kd of 0.12 nM.
The molecule B2 showed a Kd of 0.76 nM.
In turn, B3 showed an equilibrium dissociation constant (Kd) of 0.23 nM.

For another assay, the target named is T3, human MSLN-His-Avi. In words: competition ELISA: mAb pre-mixed with biotinylated hMSLN-His-Avi, binding to coated MUC16 (competitor). As to the method:
Plates were washed 3 times with 1× PBS and blocked with 300 μl PBS containing 2% Tween20 and 2% Marvel Milk. A concentration of anti-MSLN mAbs (0.23 nM to 500 nM, 3-fold dilutions) were pre-mixed with biotinylated hMSLN-His-Avi antigen (final concentration 2 μg/ml) in a volume of 100 μl for 1 hr at room temperature. After removal of the blocking solution, the mAb/MSLN mixture was added to the plates and incubated for 1 hr at room temperature. Plates were washed 3 times with PBST (1× PBS and 0.05% Tween20) and incubated with streptavidin-HRP (Thermo Scientific, 21126, 1:1000 dilution in 1× PBS) for 1 hr at room temperature. Finally, plates were washed 3 times with PBST and 3 times with PBS. […] Absorbances were read at 450-630 nm (Gen5 software, BioTek).
B1 displayed an IC50 of 5.2 nM.
B2 yielded an IC50 of 4.4 nM.
Take B3: the IC50 amounted to 2.9 nM.

The values are drawn from US20220267421A1 (INVOX PHARMA, published 2022).
